For data set [1], the target named is Tth MAG lipase (wild type), monoacylglycerol lipase from Thermoanaerobacter thermohydrosulfuricus (Thermoanaerobacter thermohydrosulfuricus). In words: SEC; size exclusion chromatography profile, Superdex 75 increase 3.2/300 column (Cytiva); dimeric and monomeric fractions. For orientation: Size exclusion chromatography separates by hydrodynamic size, large species first.

The target of data set [2] is T1, Tth MAG lipase (Thermoanaerobacter ethanolicus, UniProt A0A1G7VV58).
T1 construct: gene SAMN04244560_02687; full length, residues 1-259; E. coli; pETM-14, Ni-NTA purified (kinetics); pETBlue-1 (crystals, some SeMet and lysine-methylated); homodimer; Ser113/His233, HGF 35-37, FSE 77-79, lid 141-183
Nature of the data set: X-ray crystal structure; LC-MS of dissolved crystals. Format: binding. To be noted: endogenous ligand from E. coli; loosely coordinated tetrahedral intermediate at Ser113; SeMet, lysine-methylated protein; active site and lid tunnel.

Data set [3] deals with T1, Tth MAG lipase. Nature of the data set: pNP ester hydrolysis, […] nm, Michaelis-Menten fit. Format: biochemical. The note with it: 50 mM Tris-HCl pH 8.0, 40 °C, 1 mg/ml gum arabic.
Data set [4] deals with T1, Tth MAG lipase. Nature of the data set: X-ray crystal structure. Format: binding. To be noted: active site, bound by Glu43; native protein crystals, no glycerol added.
Substrate in data set [5]: CCCC(=O)Oc1ccc([N+](=O)[O-])cc1
In words: purified protein. Format: biochemical, Thermoanaerobacter ethanolicus. The note with it: 50 mM Tris-HCl pH 8.0, 40 °C, 1 mg/ml gum arabic.

Substrate in data set [6]: CCCCCC(=O)Oc1ccc([N+](=O)[O-])cc1
In words: purified protein. Format: biochemical, Thermoanaerobacter ethanolicus. To be noted: 50 mM Tris-HCl pH 8.0, 40 °C, 1 mg/ml gum arabic.

Substrate in data set [7]: CCCCCCCC(=O)Oc1ccc([N+](=O)[O-])cc1
In words: purified protein. Type of data set: biochemical, Thermoanaerobacter ethanolicus. The note with it: 50 mM Tris-HCl pH 8.0, 40 °C, 1 mg/ml gum arabic.

Substrate in data set [8]: CCCCCCCCCCCC(=O)Oc1ccc([N+](=O)[O-])cc1
In words: purified protein. The note with it: 50 mM Tris-HCl pH 8.0, 40 °C, 1 mg/ml gum arabic. Type of data set: biochemical, Thermoanaerobacter ethanolicus.

Substrate in data set [9]: CCCCCCCCCCCCCC(=O)Oc1ccc([N+](=O)[O-])cc1
In words: purified protein. Type of data set: biochemical, Thermoanaerobacter ethanolicus. To be noted: 50 mM Tris-HCl pH 8.0, 40 °C, 1 mg/ml gum arabic.

Usually stoichiometry N stands for a count of units in the complex or per binding partner. For orientation: Km means the concentration of substrate that gives half-maximal velocity. As usually defined, the kcat is the number of substrate molecules converted per active site and unit of time at saturation.

“Tth MAG lipase (wild type), monoacylglycerol lipase from Thermoanaerobacter thermohydrosulfuricus (enzyme)” gave a stoichiometry N in data set [1] of 2.

For the molecule `CCCCCCCCCCCCCCCCCC(=O)OCC(O)CO` (stereo not shown) [glycerol monostearate, 2,3-dihydroxypropyloctadecanoate], the “X-ray crystal structure; LC-MS of dissolved crystals” value at Tth MAG lipase [2] is recorded as “we modeled a monostearate (C18) acyl ligand into the electron density of the active Tth”.

`CC(=O)Oc1ccc([N+](=O)[O-])cc1` [C2 pNP ester]: the Km on Tth MAG lipase [3] is above 2000 µM.

Regarding `OCC(O)CO` [glycerol], the X-ray crystal structure result on Tth MAG lipase [4] is “glycerol is found in a literally identical active site position in five out of six”.

B1: Tth MAG lipase (Thermoanaerobacter ethanolicus subsp. thermohydrosulfuricus) (protein)
chain: MQKAVEITYNGKTLRGMMHLPDDVKGKVPMVIMFHGFTGNKVESHFIFVKMSRALEKVGIGSVRFDFYGSGESDGDFSEMTFSSELEDARQILKFVKEQPTTDPERIGLLGLSMGGAIAGIVAREYKDEIKALVLWAPAFNMPELIMHESVKQYGAIMEQLGFVDIGGHKLSKDFVEDISKLNIFELSKGYDKKVLIVHGTNDEAVEYKVSDRILKEVYGDNATRVTIENADHTFKSLEWEKKAIEESVEFFKKELLKG
notes: full length, residues 1-259; E. coli; pETM-14, Ni-NTA purified (kinetics); pETBlue-1 (crystals, some SeMet and lysine-methylated); homodimer; Ser113/His233, HGF 35-37, FSE 77-79, lid 141-183
Take B1: the Km in the data set “purified protein [5]” is 7.1 ± 0.7 x 10^-1 mM; in the data set “purified protein [6]”, 3.6 ± 0.8 x 10^-1 mM; in the data set “purified protein [7]” it was 4.9 ± 1.5 x 10^-1 mM; in the data set “purified protein [8]”, 100 µM; in the data set “purified protein [9]” it was 100 µM. The kcat is 8.6 ± 0.5 s⁻¹ in “purified protein [5]”, 4.9 ± 0.4 s⁻¹ in the data set “purified protein [6]” and 5.5 ± 0.8 s⁻¹ in “purified protein [7]”.

B2: Tth MAG lipase (Thermoanaerobacter ethanolicus subsp. thermohydrosulfuricus; Y154A) (protein)
chain: MQKAVEITYNGKTLRGMMHLPDDVKGKVPMVIMFHGFTGNKVESHFIFVKMSRALEKVGIGSVRFDFYGSGESDGDFSEMTFSSELEDARQILKFVKEQPTTDPERIGLLGLSMGGAIAGIVAREYKDEIKALVLWAPAFNMPELIMHESVKQAGAIMEQLGFVDIGGHKLSKDFVEDISKLNIFELSKGYDKKVLIVHGTNDEAVEYKVSDRILKEVYGDNATRVTIENADHTFKSLEWEKKAIEESVEFFKKELLKG
notes: as for B1
As for B2, in “purified protein [6]”, the Km is reported as 4.8 ± 0.8 x 10^-1 mM and the kcat came out at 5.7 ± 0.4 s⁻¹.

B3: Tth MAG lipase (Thermoanaerobacter ethanolicus subsp. thermohydrosulfuricus; E43A) (protein)
chain: MQKAVEITYNGKTLRGMMHLPDDVKGKVPMVIMFHGFTGNKVASHFIFVKMSRALEKVGIGSVRFDFYGSGESDGDFSEMTFSSELEDARQILKFVKEQPTTDPERIGLLGLSMGGAIAGIVAREYKDEIKALVLWAPAFNMPELIMHESVKQYGAIMEQLGFVDIGGHKLSKDFVEDISKLNIFELSKGYDKKVLIVHGTNDEAVEYKVSDRILKEVYGDNATRVTIENADHTFKSLEWEKKAIEESVEFFKKELLKG
notes: as for B1
As to B3, in “purified protein [6]”, the Km is recorded as 7.1 ± 3.0 x 10^-1 mM and the kcat is on record as 1.2 ± 0.3 x 10^1 s^-1.

For the origin of these results see article PMC10682391, “Discovery of a non-canonical prototype long-chain monoacylglycerol lipase through a structure-based endogenous reaction intermediate complex” (Nature Communications, 2023).
